Experimental data reported in patent publication US20080176285.

Tests used:
RNAse B = RNAse B (UniProt P61823)
porcine uteroferrin = porcine uteroferrin (UniProt P09889)
Chain of UniProt P09889 (P09889 22-340): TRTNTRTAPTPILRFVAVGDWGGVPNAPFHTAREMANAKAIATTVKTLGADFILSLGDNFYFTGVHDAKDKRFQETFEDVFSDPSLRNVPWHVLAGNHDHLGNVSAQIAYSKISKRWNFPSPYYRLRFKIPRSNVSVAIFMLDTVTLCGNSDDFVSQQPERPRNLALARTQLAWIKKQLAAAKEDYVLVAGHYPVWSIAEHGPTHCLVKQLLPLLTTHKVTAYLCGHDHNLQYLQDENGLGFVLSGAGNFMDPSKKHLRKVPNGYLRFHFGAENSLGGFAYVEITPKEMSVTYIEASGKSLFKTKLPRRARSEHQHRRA

Chain of UniProt P61823 (P61823 27-150): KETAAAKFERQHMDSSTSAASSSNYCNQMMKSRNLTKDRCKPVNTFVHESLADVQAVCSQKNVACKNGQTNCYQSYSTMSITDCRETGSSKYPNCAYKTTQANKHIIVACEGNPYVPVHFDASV

## bovine GlcNAc-phosphotransferase (UDP-N-acetylglucosamine: lysosomal enzyme N-acetylglucosamine-1-phosphotransferase)
RNAse B
  Km as acceptor for the transfer of GlcNAc-1-P: the Km was not reached at the solubility limit of the protein (at 600 µM)
Porcine uteroferrin
  Km as acceptor for the transfer of GlcNAc-1-P: Kms below 20 µM
Cathepsin D
  Km as acceptor for the transfer of GlcNAc-1-P: Kms below 20 µM
